How the values were obtained:
Test in all cases: cell-based or functional assay
HLA-B3503 = HLA-B3503 (human)
HLA-C0401 = HLA-C0401 (human)
HLA-A0201 = HLA-A0201 (human)
HLA-B5701 = HLA-B5701 (human)
HLA-B3501 = HLA-B3501 (human)
HLA-B4001 = HLA-B4001 (human)
HLA-A3101 = HLA-A3101 (human)
HLA-A2402 = HLA-A2402 (human)
HLA-A0101 = HLA-A0101 (human)
HLA-B4402 = HLA-B4402 (human)
HLA-B3802 = HLA-B3802 (human)
HLA-DRB10401 = HLA-DRB10401 (human)
HLA-DRB11104 = HLA-DRB11104 (human)
HLA-B4701 = HLA-B4701 (human)
HLA-DRB10101 = HLA-DRB10101 (human)
HLA-DRB10402 = HLA-DRB10402 (human)
HLA-B0702 = HLA-B0702 (human)
HLA-A0203 = HLA-A0203 (human)
HLA-B3508 = HLA-B3508 (human)
HLA-C1701 = HLA-C1701 (human)
HLA-B3901 = HLA-B3901 (human)
HLA-B3801 = HLA-B3801 (human)
HLA-A6901 = HLA-A6901 (human)

B1: WT1 122-130 SGQARMFPN (peptide)
peptide: SGQARMFPN
- Cytotoxic CTL response, % (at 50:1) E:T ratio vs WT1+ allo APC with restricting HLA allele loaded with WT1 peptide (HLA-B3503): 41%
- Cytotoxic CTL response, % (at 50:1) E:T ratio vs WT1+ allo APC with restricting HLA allele loaded with WT1 peptide (HLA-C0401): 41%

B2: WT1 6-15 RDLNALLPAV (peptide)
peptide: RDLNALLPAV
- Cytotoxic CTL response, % (at 50:1) E:T ratio vs WT1+ allo APC with restricting HLA allele loaded with WT1 peptide (HLA-A0201): 31%
- Cytotoxic CTL response, % (at 50:1) E:T ratio vs WT1+ allo APC with restricting HLA allele loaded with WT1 peptide (HLA-B5701): 22%

B3: WT1 174-182 HSFKHEDPM (peptide)
peptide: HSFKHEDPM
- Cytotoxic CTL response, % (at 50:1) E:T ratio vs WT1+ allo APC with restricting HLA allele loaded with WT1 peptide (HLA-B3501): 63%

B4: WT1 (-99)-(-91) THSPTHPPR (peptide)
peptide: THSPTHPPR
- Cytotoxic CTL response, % (at 50:1) E:T ratio vs WT1+ allo APC with restricting HLA allele loaded with WT1 peptide (HLA-A0201): 21%
- Cytotoxic CTL response, % (at 50:1) E:T ratio vs WT1+ allo APC with restricting HLA allele loaded with WT1 peptide (HLA-B4001): 31%

B5: WT1 (-107)-(-99) HFPPSLPPT (peptide)
peptide: HFPPSLPPT
- Cytotoxic CTL response, % (at 50:1) E:T ratio vs WT1+ allo APC with restricting HLA allele loaded with WT1 peptide (HLA-A3101): 27%

B6: WT1 46-54 SAYGSLGGP (peptide)
peptide: SAYGSLGGP
- Cytotoxic CTL response, % (at 50:1) E:T ratio vs WT1+ allo APC with restricting HLA allele loaded with WT1 peptide (HLA-A0201): 31%
- Cytotoxic CTL response, % (at 50:1) E:T ratio vs WT1+ allo APC with restricting HLA allele loaded with WT1 peptide (HLA-B4001): 24%

B7: WT1 398-406 … (peptide)
peptide: LKTHTTRTHT
- Cytotoxic CTL response, % (at 50:1) E:T ratio vs WT1+ allo APC with restricting HLA allele loaded with WT1 peptide (HLA-A0201): 22%

B8: WT1 239-248 NQMNLGATL (peptide)
peptide: NQMNLGATL
- Cytotoxic CTL response, % (at 50:1) E:T ratio vs WT1+ allo APC with restricting HLA allele loaded with WT1 peptide (HLA-A2402): 2%

B9: WT1 135-143 PSCLESQPA (peptide)
peptide: PSCLESQPA
- Cytotoxic CTL response, % (at 50:1) E:T ratio vs WT1+ allo APC with restricting HLA allele loaded with WT1 peptide (HLA-B3501): 21%

B10: WT1 209-217 CTGSQALLL (peptide)
peptide: CTGSQALLL
- Cytotoxic CTL response, % (at 50:1) E:T ratio vs WT1+ allo APC with restricting HLA allele loaded with WT1 peptide (HLA-A0101): 26%

B11: WT1 22-31 GGCALPVSGA (peptide)
peptide: GGCALPVSGA
- Cytotoxic CTL response, % (at 50:1) E:T ratio vs WT1+ allo APC with restricting HLA allele loaded with WT1 peptide (HLA-A0201): 25%

B12: WT1 106-114 ACRYGPFGP (peptide)
peptide: ACRYGPFGP
- Cytotoxic CTL response, % (at 50:1) E:T ratio vs WT1+ allo APC with restricting HLA allele loaded with WT1 peptide (HLA-B4402): 23%

B13: WT1 390-398 RKFSRSDHL (peptide)
peptide: RKFSRSDHL
- Cytotoxic CTL response, % (at 50:1) E:T ratio vs WT1+ allo APC with restricting HLA allele loaded with WT1 peptide (HLA-A0201): 27%

B14: WT1 206-214 TDSCTGSQA (peptide)
peptide: TDSCTGSQA
- Cytotoxic CTL response, % (at 50:1) E:T ratio vs WT1+ allo APC with restricting HLA allele loaded with WT1 peptide (HLA-B3802): 53%
- Cytotoxic CTL response, % (at 50:1) E:T ratio vs WT1+ allo APC with restricting HLA allele loaded with WT1 peptide (HLA-B4402): 88%

B15: WT1 242-250 NLGATLKGV (peptide)
peptide: NLGATLKGV
- Cytotoxic CTL response, % (at 50:1) E:T ratio vs WT1+ allo APC with restricting HLA allele loaded with WT1 peptide (HLA-A0101): 17%
- Cytotoxic CTL response, % (at 50:1) E:T ratio vs WT1+ allo APC with restricting HLA allele loaded with WT1 peptide (HLA-A0201): 14%

B16: WT1 320-334 KRPFMCAYPGC (peptide)
peptide: KRPFMCAYPGC
- Cytotoxic CTL response, % (at 50:1) E:T ratio vs WT1+ allo APC with restricting HLA allele loaded with WT1 peptide (HLA-DRB10401): 0%

B17: WT1 202-210 CHTPTDSCT (peptide)
peptide: CHTPTDSCT
- Cytotoxic CTL response, % (at 50:1) E:T ratio vs WT1+ allo APC with restricting HLA allele loaded with WT1 peptide (HLA-B4402): 19%

B18: WT1 238-248 WNQMNLGATLK (peptide)
peptide: WNQMNLGATLK
- Cytotoxic CTL response, % (at 50:1) E:T ratio vs WT1+ allo APC with restricting HLA allele loaded with WT1 peptide (HLA-DRB11104): 1%

B19: WT1 (-47)-(-39) PGCLQQPEQ (peptide)
peptide: PGCLQQPEQ
- Cytotoxic CTL response, % (at 50:1) E:T ratio vs WT1+ allo APC with restricting HLA allele loaded with WT1 peptide (HLA-A0201): 27%
- Cytotoxic CTL response, % (at 50:1) E:T ratio vs WT1+ allo APC with restricting HLA allele loaded with WT1 peptide (HLA-B4701): 25%

B20: WT1 (-47)-(-37) PGCLQQPEQQG (peptide)
peptide: PGCLQQPEQQG
- Cytotoxic CTL response, % (at 50:1) E:T ratio vs WT1+ allo APC with restricting HLA allele loaded with WT1 peptide (HLA-DRB10101): 25%

B21: WT1 235-249 CMTWNQMNLGATLKG (peptide)
peptide: CMTWNQMNLGATLKG
- Cytotoxic CTL response, % (at 50:1) E:T ratio vs WT1+ allo APC with restricting HLA allele loaded with WT1 peptide (HLA-DRB10402): 15%

B22: WT1 58-66 PAPPPPPPP (peptide)
peptide: PAPPPPPPP
- Cytotoxic CTL response, % (at 50:1) E:T ratio vs WT1+ allo APC with restricting HLA allele loaded with WT1 peptide (HLA-A0201): 18%

B23: WT1 (-119)-(-111) GALRNPTAC (peptide)
peptide: GALRNPTAC
- Cytotoxic CTL response, % (at 50:1) E:T ratio vs WT1+ allo APC with restricting HLA allele loaded with WT1 peptide (HLA-B0702): 22%

B24: WT1 146-154 NQGYSTVTF (peptide)
peptide: NQGYSTVTF
- Cytotoxic CTL response, % (at 50:1) E:T ratio vs WT1+ allo APC with restricting HLA allele loaded with WT1 peptide (HLA-A0101): 15%

B25: WT1 225-233 NLYQMTSQLE (peptide)
peptide: NLYQMTSQLE
- Cytotoxic CTL response, % (at 50:1) E:T ratio vs WT1+ allo APC with restricting HLA allele loaded with WT1 peptide (HLA-A0201): 28%

B26: WT1 (-110)-(-102) PLPHFPPSL (peptide)
peptide: PLPHFPPSL
- Cytotoxic CTL response, % (at 50:1) E:T ratio vs WT1+ allo APC with restricting HLA allele loaded with WT1 peptide (HLA-A0201): 24%

B27: WT1 38-48 LDFAPPGASAY (peptide)
peptide: LDFAPPGASAY
- Cytotoxic CTL response, % (at 50:1) E:T ratio vs WT1+ allo APC with restricting HLA allele loaded with WT1 peptide (HLA-DRB10402): 71%

B28: WT1 (-8)-(1) ASGSEPQQM (peptide)
peptide: ASGSEPQQM
- Cytotoxic CTL response, % (at 50:1) E:T ratio vs WT1+ allo APC with restricting HLA allele loaded with WT1 peptide (HLA-B3501): 51%

B29: WT1 (-75)-(-67) AILDFLLLQ (peptide)
peptide: AILDFLLLQ
- Cytotoxic CTL response, % (at 50:1) E:T ratio vs WT1+ allo APC with restricting HLA allele loaded with WT1 peptide (HLA-A0201): 17%

B30: WT1 (-125)-(-117) RQRPHPGAL (peptide)
peptide: RQRPHPGAL
- Cytotoxic CTL response, % (at 50:1) E:T ratio vs WT1+ allo APC with restricting HLA allele loaded with WT1 peptide (HLA-B0702): 53%

B31: WT1 243-252 LGATLKGVAA (peptide)
peptide: LGATLKGVAA
- Cytotoxic CTL response, % (at 50:1) E:T ratio vs WT1+ allo APC with restricting HLA allele loaded with WT1 peptide (HLA-A0203): 21%

B32: WT1 238-246 WNQMNLGAT (peptide)
peptide: WNQMNLGAT
- Cytotoxic CTL response, % (at 50:1) E:T ratio vs WT1+ allo APC with restricting HLA allele loaded with WT1 peptide (HLA-A0101): 19%
- Cytotoxic CTL response, % (at 50:1) E:T ratio vs WT1+ allo APC with restricting HLA allele loaded with WT1 peptide (HLA-A0201): 21%
- Cytotoxic CTL response, % (at 50:1) E:T ratio vs WT1+ allo APC with restricting HLA allele loaded with WT1 peptide (HLA-B3508): 21%
- Cytotoxic CTL response, % (at 50:1) E:T ratio vs WT1+ allo APC with restricting HLA allele loaded with WT1 peptide (HLA-C1701): 7%

B33: WT1 38-46 LDFAPPGAS (peptide)
peptide: LDFAPPGAS
- Cytotoxic CTL response, % (at 50:1) E:T ratio vs WT1+ allo APC with restricting HLA allele loaded with WT1 peptide (HLA-A0201): 62%

B34: WT1 30-38 GAAQWAPVL (peptide)
peptide: GAAQWAPVL
- Cytotoxic CTL response, % (at 50:1) E:T ratio vs WT1+ allo APC with restricting HLA allele loaded with WT1 peptide (HLA-B3901): 19%

B35: WT1 166-174 HHAAQFPNH (peptide)
peptide: HHAAQFPNH
- Cytotoxic CTL response, % (at 50:1) E:T ratio vs WT1+ allo APC with restricting HLA allele loaded with WT1 peptide (HLA-B3801): 17%

B36: WT1 323-332 FMCAYPGCNK (peptide)
peptide: FMCAYPGCNK
- Cytotoxic CTL response, % (at 50:1) E:T ratio vs WT1+ allo APC with restricting HLA allele loaded with WT1 peptide (HLA-A0101): 0%
- Cytotoxic CTL response, % (at 50:1) E:T ratio vs WT1+ allo APC with restricting HLA allele loaded with WT1 peptide (HLA-B3501): 61%

B37: WT1 218-226 RTPYSSDNL (peptide)
peptide: RTPYSSDNL
- Cytotoxic CTL response, % (at 50:1) E:T ratio vs WT1+ allo APC with restricting HLA allele loaded with WT1 peptide (HLA-B3503): 31%

B38: WT1 (-27)-(-19) KLGAAEASA (peptide)
peptide: KLGAAEASA
- Cytotoxic CTL response, % (at 50:1) E:T ratio vs WT1+ allo APC with restricting HLA allele loaded with WT1 peptide (HLA-A0201): 22%

B39: WT1 269-278 GYESDNHTT (peptide)
peptide: GYESDNHTT
- Cytotoxic CTL response, % (at 50:1) E:T ratio vs WT1+ allo APC with restricting HLA allele loaded with WT1 peptide (HLA-A0101): 26%
- Cytotoxic CTL response, % (at 50:1) E:T ratio vs WT1+ allo APC with restricting HLA allele loaded with WT1 peptide (HLA-B3501): 23%

B40: WT1 436-445 NMHQRNHTKL (peptide)
peptide: NMHQRNHTKL
- Cytotoxic CTL response, % (at 50:1) E:T ratio vs WT1+ allo APC with restricting HLA allele loaded with WT1 peptide (HLA-A0201): 32%
- Cytotoxic CTL response, % (at 50:1) E:T ratio vs WT1+ allo APC with restricting HLA allele loaded with WT1 peptide (HLA-A2402): 27%
- Cytotoxic CTL response, % (at 50:1) E:T ratio vs WT1+ allo APC with restricting HLA allele loaded with WT1 peptide (HLA-B4001): 26%

B41: WT1 246-253 TLGVAAGS (peptide)
peptide: TLGVAAGS
- Cytotoxic CTL response, % (at 50:1) E:T ratio vs WT1+ allo APC with restricting HLA allele loaded with WT1 peptide (HLA-A6901): 57%

— patent publication US20170334951A1 (Memorial Sloan Kettering, published 2017)
